Data reported in patent US8986997B2, “Methods and compositions for increasing biological molecule stability” (The Regents of the University of Michigan, priority 2007, dated 2015).
Numbering of substitutions follows the chain as printed. Names and notes keep the numbering of the source. “Also recorded” adds a separate entry of the source.

How the values were obtained:
[1] = wild type protein; in words; cited from earlier work
colicin E7 = molecular target: T1, colicin E7 (Escherichia coli, UniProt Q47112); details: in words; listed as Im7; cited from earlier work
T1 sequence (Q47112 1-576): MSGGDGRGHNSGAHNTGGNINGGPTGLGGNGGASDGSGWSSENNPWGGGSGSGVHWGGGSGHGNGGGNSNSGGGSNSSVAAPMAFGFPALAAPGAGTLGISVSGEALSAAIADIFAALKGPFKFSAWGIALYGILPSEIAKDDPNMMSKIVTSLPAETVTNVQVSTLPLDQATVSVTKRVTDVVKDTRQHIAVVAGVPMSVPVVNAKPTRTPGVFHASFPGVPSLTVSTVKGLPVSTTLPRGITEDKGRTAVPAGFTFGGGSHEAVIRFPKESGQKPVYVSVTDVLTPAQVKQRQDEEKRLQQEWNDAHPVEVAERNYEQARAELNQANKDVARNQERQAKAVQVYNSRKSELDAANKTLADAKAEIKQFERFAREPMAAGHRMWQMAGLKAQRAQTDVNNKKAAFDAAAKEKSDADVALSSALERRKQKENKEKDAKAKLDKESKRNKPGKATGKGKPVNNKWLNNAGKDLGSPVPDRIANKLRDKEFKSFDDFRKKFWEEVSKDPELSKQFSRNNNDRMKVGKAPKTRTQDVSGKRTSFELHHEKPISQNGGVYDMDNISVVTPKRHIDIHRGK

[2] = Equilibrium unfolding experiments (urea denaturation, folding free energy); type: physicochemical
Method: Proteins were dissolved to a concentration of approximately 100 μM in 50 mM Tris-Cl buffer at pH 7.5, containing 400 mM Na2SO4. Substocks of each mutant were made up in the same buffer containing 0, 2, 4, 6 and 8 M urea. These substocks were titrated into a black polypropylene 384 well microtitre plate (Greiner) to create eight replicates of a urea titration from 0 to 8 M urea in steps of 0.2 M urea, using a Hamilton Microlab Star robot. The plates were briefly centrifuged and incubated at 37° C. for one hour to allow the unfolding reaction to come to equilibrium. The tryptophan fluorescence of each sample was measured using a PerkinElmer EnVision platereader. The excitation wavelength was 280 nm and emission was measured using a 340-350 nm filter. Data were normalized and processed using Igor Pro (Wavemetrics). The entire dataset was fitted globally to a two-state equilibrium unfolding equation and the ΔG values for each Im7 variant were compared to that of the wildtype protein under identical conditions. ΔΔGUN=ΔGUN(mutant)−ΔGUN(wildtype)

B1: G-CSF: granulocyte-colony stimulating factor, sold under the trademark names Neopogen and Neulasta (protein, UniProt P09919 31-207, looked up)
Granulocyte …: TPLGPASSLPQSFLLKCLEQVRKIQGDGAALQEKLVSECATYKLCHPEELVLLGHSLGIPWAPLSSCPSQALQLAGCLSQLHSGLFLYQGLLQALEGISPELGPTLDTLQLDVADFATTIWQQMEELGMAPALQPTQGAMPAFASAFQRRAGGVLVASHLQSFLEVSYRVLRHLAQP
- tendency to aggregate [1]: high tendency to aggregate

B2: Wildtype Im7: small helical protein that confers immunity to bacterial colicin E7 (protein)
chain: MELKNSISDYTEAEFVQLLKEIEKENVAATDDVLDVLLEHFVKITEHPDGTDLIYYPSDNRDDSPEGIVKEIKEWRAANGKPGFKQG
- affinity for colicin E7 (colicin E7): binds very tightly; also recorded: picomolar affinity

B3: N26K: Im7 variant more stable than Im7 wt, in Kan55-Im7 (protein)
chain: B2 chain with N26K
- stability of Im7 variant relative to Im7 wt [2]: more stable
